Source: the DeepSol protein solubility set

Test: soluble on expression in E. coli; label from the status in PepcDB or PDB records

| Sequence | soluble on expression in E. coli |
| --- | --- |
| MLSRAGKHRQLPSLRASQAEASPICSELEDKHKNVQEPDGISNHFLQEKKFAGSESKEYKRKDVVLYREKLLAPEVTNLVSREQMMMHPRDQYLHVLSPYCYSAIEVSHAVFSIFAYIVCDVNWSREYCSKHTTCKQDFKTMIIAVMREYLSMGEAADISRLPRAAMFNLQQAGQLATPTASGTQRRAEPETYVDLHALSDKINHLKTHCNYQIRRDRAFPPMVNLFEIEPRVPVKMSYFLAECKTYGIHQCLHPVSATVKQIDQAFLPAWKARVLFMLGWMDNFFDEDMDDLKRCIRKAINFKVPLKTWESEEDLMVVILEQNQAKLKLARECLTTISKCEHADPHDWLHCNRKRRERHFIVCEYKNPGIWHSSEILKISLKILRQCMGHATLDLKEVNVKSENKIGSDASPDVPLDKKKLKRQKQKLRKAAEPPEPTPPPPPPVIPVPEAKPCEKCFRTSERCNKANAELKTSLNKIKILEKKLSAEKRAFKENQETWEKKLEELQTELQAKERTIQEFQDKVAPKCAESVSDGFLRDGEELIATFDVTSSNATEEFESECIICREDIDLENGTVQCPRCTEIYHSHCATQWLSQKPTCPKCIFHIGHINEFPSLV | not soluble |
| MLSRICGNGIRLTRTRLQFQPSIVTFRDYSNPAPKRGFLNNLIDNVRDEMQKNKELQEHQQQLKARMQELNESDALKDARKKFEIVEKETLKSSEVVKQKIEELSDHMKKMVHEIQKTEAGKKMTEAGAEALKQARKAAEHVEKVAEKVGDTEVYKHVSTSMKTVKDEIDNIADVRMYSRPEALTKRTDGFDLEKERVVEANDSATDVTLHKDSKWYSGWKNFSESNTYYHKLLDWKIKYDESDNMAVRMMRGVTEKIGSVFSGQNEVSEVLTEIHKIDANFDKQEWLRFCETKIIPNILEAFIRFDLEVLQSWCHERAYTQLSTVVKEYQKMHFSTKDSRIIDINKVEMATGKMMEQGPVLIISFQVYMINVTKNADGKVVEGDPDNPKRINHIWVLCRDVEEYNPALAWKLLEVHMQETPLAL | not soluble |
| MLSRLTSRNVLLARNVATAATQERQKIKVDNPVVDLDGDEMTRIIWKEIKNKLILPYLDLDIKYYDLGLEYRDETNDQVTIDAAHAILEHSVGIKCATITPDEARIKEFNLKKMWLSPNGTIRNILGGTVFREPILCKNIPRLVPGWTQPITIGRHAFGDQYKCTDLVIPSGSTLQLLVNKPDGSKDVHNVYDFKKSGGVGLAMYNTDESIKGFAHSCFQYALMKQWPLYLSTKNTILKKYDGRFKDIFQDIYEKKYEADFKNNKIWYEHRLIDDQVAQALKSSGGFVWACKNYDGDVQSDIVAQGYGSLGLMSSVLMCPDGKTIEAEAAHGTVTRHYREHQKGNSTSTNPIASIFAWTRGLHHRGVLDNNEALKTFSLTLEKACIDTVEEGKMTKDLSICIHGTKKGTEKGAYLITEDFLSAIDTKMAELMRQD | not soluble |
| MLSVRTPLATIADQQQLQLSPLKRLTLADKENTPPTLSSTRVLASKAARRIFQDSAELESKAPTNPSVEDEPLLRENPRRFVVFPIEYHDIWQMYKKAEASFWTAEEVDLSKDIQHWEALKPDERHFISHVLAFFAASDGIVNENLVERFSQEVQVTEARCFYGFQIAMENIHSEMYSLLIDTYIKDPKEREYLFNAIETMPCVKKKADWALRWIGDKEATYGERVVAFAAVEGIFFSGSFASIFWLKKRGLMPGLTFSNELISRDEGLHCDFACLMFKHLVHKPAEQRVREIITNAVRIEQEFLTEALPVKLIGMNCTLMKQYIEFVADRLMLELGFNKIFRVENPFDFMENISLEGKTNFFEKRVGEYQRMGVMSNSTENSFTLDADF | soluble |
| MLTEKTKKELIRLSKVNNYIIKVETNQNFKHQSKCGDQILFQIIETNNGKFNLKHHASGCIVLLASANALNKLCNNKAKSEILNLVQKVINSNFANLDEIDVSLKIFNVFTNTNRKDCFLLPYKSLKDSLESYKPLRRTIRLEHHHHHH | not soluble |
| MLTLKNDYLTVKINPLGAELTSVVDNETQLEYMWQADKAYWGRHAPILFPIVGRLQDNQYRLGERTYHMTQHGFARDREFTVIDQTPTQVTLELTADDQSRALFPADFTLTVTFELIDHQLRFSADVFNPATTTLPFSIGAHPGFNVPLGDALADFTDYQVTVSPKKTYQRVPLVGPYSDSQHTEPLDLTQPLGLDHGLFAHDAQVLTLDSETTVMLSTPTNDHGVALTTTAPYLGIWSPYPKQAPFVCLEPWWGLADDVQATGELTTKVAIHHLAAQQHFQAAYQVTYFLEHHHHHH | not soluble |
| MLTLLRRGLLVFLAAFPLLSMAAPTPQQVVQGTVDELLSDIKANKAAYKADPQKLYATLDRILGPVVDAEGIAKSVMTVKYSRQASPEQIKRFEEVFKNSLMQFYGNALLEYDNQDIRVLPSSAKPSDDRASVNMEIRDSKGTVYPVSYTMTNLAGGWKVRNVIINGINIGKLFRDQFADTMQKNRNDLEKTIAGWGEVVAKAKETAKAEEAGAKAAALEHHHHHH | soluble |
| MLTPERHQMILQLVKEQKVVKLQQLVERTESSESTIRRDLAQLEKQRLLKRVHGGAAVLTGKGQEPTMVEKSSKNIQIKQQIAKYAASVIEQGDCIYLDAGSTTFEMIPFLINKDVTVVTNGLMHIEALVENNIRAYLLGGMMKSRTKALIGAMAQESMQKYRFDKCFLGANGVHEQLGFTTPDPEEALLKQMALTLANEGYFLIDESKFSEVAFAKIANVEDANIITNHLEIDLEKYKQQTNVIEADKQLEHHHHHH | soluble |
| MLTSFGQILRKLFCIDCSERLLDMADKLGVSVAFLSSVKIGKKSVPVGIFVRTLENFSQQDLAEFKKLLEKVGKKRGTLYRHVGKSYSRTFIYTSRTLKKHT | not soluble |
| MLVENLAHFSADTRFEADLVIIGGGPAGLTVARELRGAPLRVLIVESGLLEEAPQANELSTLESIGEPNAPHQIQKRIAFHGANCRSWTQDLQPYGVRCRALGGSTHAWAGKSAAFDDIDFQERAWVPHSGWPMDRSSLDPFLDRAADILNLGPNRYDDTLWTLLGISPPEPQLGTQGLRSFFWQFSRSRVDPLDIMRFGADFLRLEADNIRVLLNATATRLDLTQEGDGFRGLEIATNDGQRHTVHAKAAVIAGGGIENARLLLASTTIHANGVGNQYDLVGRFLMDHAGARIARFGGSNANQIMRRFGFYGLRNSGRTSMYMHGLAITPEMQEREHLLNSAIYFMPEHAADDPWDAVKRLLTGKSKRQVKDAMRAIAGAGLLGKGAAMKLLSSDRLPVAVKDFIVQTAIRYMPNVAADDFLSRGVPHKVTDVWIDAISEQQPDPDSRITLSEKTDRLGLPLARVNWKINADERRTIMRLGHIVESAFAQARLPKPILEPWVAEGAFNDAVIIDMAHSMGTTRMSASARSGVVDEQCQVHGVRDLYIAGSSIFPTSGHANPTLMIVAFAVRLADRIRQTLL | not soluble |
| MLWMVIGMWDTSKDYRLMVAVKAVDLFRRTLESGGFRGQWKKKPALQAAGEIERILQGLTYCYMEPEDLASSPEVMEIKGKVEEIVEALGGEDWSRRFLEEAPREEREKVEENIARVRFFLNTLGNLDRRLMLGKISDPVIGVDIITGEVMSVGNHPVADKLHVCNVNAGGRSIKVVTNDLDVRENDHVAVALLPPQNFMGVTSEGMFLGVEGVLRDVDGEPGEMPRGIPLEALNETRNLVEEFLKS | soluble |
| MLWPFRWVWWKRVLTSQTRAPAKPNPLTVPPTCTWWSLRKLPNPTKLDDDLKNLLDPNEVRARMLKSFGTENFTQPQPQPQALKTTTPVFGTSSGNLGSVLSGGGYHAGLKHHQSTVTRSTGEWVDR | soluble |
| MMAESTGVDRGIQSLIAARKSLKLSLEKSKAIGLALGKTGPRFDEIEQRLPLLEAAVRPIRADGEALKDVGGNINRAVGPAAAVLKVFDAVHGLEKSLLSDPKNDLSSYLSVLKRLEEALKFLGENCGLAIQWLEDIVEYLDDHHVADEKYLSNLKKSLRGLSEFHNDRGGGEEKERSQLRLDGGLRNAALDKLENEFRRLLKDNSVPLPMASPSSLGDQACIAPSQLPVTVIHKLQAILGRLRANNRLDKCISIYVEVRSLNVRASLQALDLDYLDISVSEFNDVQSIEGYIAQWGNHLEFAVKHLFEAEFKLCNDVFERLGLNVWMDCFSKIAAQAGMLAFLQFGKTVTDSKKDPIKLLKLLDIFTSLNKLRADFNRLFGGAACIEIQNFTRDLIKRIIDGAAEIFWELLVQVEIQKQTPPPSDGGVPRLVSFVTDYCNKLIGDKYKSTLTQVLLIHKSWRSERFQDNQLMVEVLRIIKAIEQNLDVWMKAYPDQTLAHFFGMNNHWHLYKNLKGTNIGDHLGDSWLKEHDQYKEYYATVFLRDSWGKLPSHLSREGLILFSGGHATARDLVKKRLKAFNDAFDEMYKKQASWVLPEKDLRDRVCQQIVQAIVPVYRSYMQNYGPLVEKDASSSKYVRYTVVALEKILSSLYMPKPMRYGSFKGTPPSEKFKNDVDLRRTTSAVV | soluble |
